Legend:
[1] = biological target: T1, TRAF2 (Homo sapiens, UniProt Q12933); test: In-vitro protein-binding assay, TRAF2; details: FLAG-TRAF2 incubated with GST-SIVA2
T1 construct: made in house; host or cells: HEK293T (FLAG-TRAF2); bacteria, pGEX2T (GST-SIVA2)
T1 sequence (Q12933 1-501): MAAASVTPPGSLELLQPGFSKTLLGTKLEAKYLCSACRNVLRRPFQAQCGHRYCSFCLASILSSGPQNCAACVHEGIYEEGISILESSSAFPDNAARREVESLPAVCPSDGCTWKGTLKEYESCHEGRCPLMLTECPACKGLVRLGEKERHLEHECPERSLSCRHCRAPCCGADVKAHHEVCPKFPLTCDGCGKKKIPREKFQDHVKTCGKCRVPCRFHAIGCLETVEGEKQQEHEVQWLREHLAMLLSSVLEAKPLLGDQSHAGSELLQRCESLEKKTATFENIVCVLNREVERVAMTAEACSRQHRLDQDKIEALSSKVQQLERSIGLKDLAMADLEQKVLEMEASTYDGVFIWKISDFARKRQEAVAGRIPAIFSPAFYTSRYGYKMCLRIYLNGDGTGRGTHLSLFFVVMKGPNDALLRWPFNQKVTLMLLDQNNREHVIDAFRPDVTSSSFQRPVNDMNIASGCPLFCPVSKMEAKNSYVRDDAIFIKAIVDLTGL
Protocol: (§1) (A) Transfected SIVA2 binds to endogenous TRAF2. FLAG-SIVA2 or HIS-SIVA2 (control) was transfected into HEK293T cells. SIVA2 was immunoprecipitated using anti-FLAG M2 beads and the co-precipitated cellular TRAF2 was assayed by western blotting. The total cellular level of TRAF2 is shown at the bottom. (B) SIVA2 binds TRAF2 inducibly. Treatment of the cells EcR293-CD27-SIVA2 with ponasterone for 2 h to induce SIVA2, and treated with CD70 as indicated was followed by immunoprecipitation of TRAF2. […] FLAG-tagged TRAF2 was immunoprecipitated from transfected HEK293T cells with anti-FLAG M2 beads, eluted from the beads using FLAG peptide and incubated with GST-SIVA2 or its mutant, and then subjected to immunoprecipitation and western blotting as indicated. […] Left panel: Binding in vitro. Recombinant cIAP1 was incubated with GST-SIVA2 or its mutant. Right and bottom panels depict binding in transfected HEK293T cells. Right panel: Cells were transfected with HIS-SIVA2, HIS-SIVA2 (1-58), or FLAG-TRAF2. After 28 h the endogenous cIAP1 was immunoprecipitated. MG132 was applied for the last 6 h of incubation. Bottom panel: Cells were transfected with FLAG-SIVA2, FLAG-SIVA2 (1-58) or, as a specificity control, FLAG-GST-BR3-ICD* (in which the BAFF receptor intracellular domain is mutated at its TRAF3-binding region (PVPAT>AVAAA)). […] N/A, not analyzed. […]

[2] = biological target: T2, cIAP1 (Homo sapiens, UniProt Q13490); test: In-vitro protein-binding assay, cIAP1; details: recombinant cIAP1 incubated with GST-SIVA2
T2 sequence (Q13490 whole entry, species assumed): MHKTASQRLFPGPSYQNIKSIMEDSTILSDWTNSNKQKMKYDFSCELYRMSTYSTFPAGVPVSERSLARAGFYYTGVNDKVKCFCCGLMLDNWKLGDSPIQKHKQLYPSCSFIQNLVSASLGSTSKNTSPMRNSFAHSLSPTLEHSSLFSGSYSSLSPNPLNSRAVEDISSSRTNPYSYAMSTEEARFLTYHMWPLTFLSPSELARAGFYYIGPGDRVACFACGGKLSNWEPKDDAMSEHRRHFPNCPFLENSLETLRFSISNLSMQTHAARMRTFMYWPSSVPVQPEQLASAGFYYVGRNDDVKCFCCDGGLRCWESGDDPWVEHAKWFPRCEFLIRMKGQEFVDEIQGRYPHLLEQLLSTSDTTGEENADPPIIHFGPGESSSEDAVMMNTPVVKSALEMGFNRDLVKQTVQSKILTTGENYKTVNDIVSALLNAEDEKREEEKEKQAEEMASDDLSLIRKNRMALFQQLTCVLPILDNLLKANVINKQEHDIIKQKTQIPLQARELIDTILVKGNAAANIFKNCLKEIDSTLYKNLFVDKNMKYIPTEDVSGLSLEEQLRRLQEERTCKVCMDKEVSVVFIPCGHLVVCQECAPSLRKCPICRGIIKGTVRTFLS
Protocol: as §1

[3] = biological target: T2, cIAP1; test: In-vitro substrate ubiquitination assay, cIAP1; type: biochemical; details: recombinant cIAP1, E2 UbCH5b or Ubc13/Uev1a
Protocol: FIG. 9 SIVA2 mediates ubquitination of both TRAF2 and cIAP1. (A) cIAP-1 is required for SIVA2-mediated TRAF2 ubiquitination in cells. HEK293T cells were transfected with cIAP1 siRNA and, 24 h later, with the other plasmids as indicated. The extent of ubiquitination of the TRAF2 immunoprecipitated from the lysates of these cells, as well as the cellular levels of the endogenous cIAP1 and cIAP2 and the transfected ubiquitin, were determined by western blot analyses. (B) SIVA2, but not SIVA1, enhances K48-linked polyubiquitination of TRAF2 in cells. HEK293T cells grown in 90-mm plates were transfected by the calcium phosphate method with 4 μg of FLAG-TRAF2 (C34A), together with […] of HA-ubiquitin mutant plasmids and 6 μg of HIS-SIVA2 or HIS-SIVA2 (C73A) or HIS-SIVA1. The cells were lysed 24 h after transfection and TRAF2 was precipitated and analyzed as indicated. Wild-type SIVA2 and SIVA1, as well as SIVA2 (C73A) mutant, co-precipitated with TRAF2 (bottom panel). […]
In-vitro ubiquitination. […] Supernatants of the reaction were analyzed for free polyubiquitin chains formed in solution. For assay of self-ubiquitination of SIVA2 the glutathione beads were washed three times with a buffer containing 20 mM HEPES pH 7.6, 250 mM NaCl, 1 mM DTT, 1% Triton X-100 and Complete Protease Inhibitor Cocktail, boiled with LDS sample buffer (Invitrogen), and analyzed by western blotting. […]

[4] = biological target: T3, cIAP1 (human, UniProt Q13490 1-618); test: immunoprecipitation of the transfected protein, probed for co-precipitated endogenous cIAP1 (FIG. 6D bottom panel)
T3 construct: Also used for general sentences that say only 'cIAP1'; also called endogenous cIAP1
T3 sequence (Q13490 whole entry): as the sequence (Q13490 whole entry, species assumed) above
Protocol: Left panel: Binding in vitro. […] Right and bottom panels depict binding in transfected HEK293T cells. […] After 28 h the endogenous cIAP1 was immunoprecipitated. MG132 was applied for the last 6 h of incubation. […] After 28 h the transfected proteins were immunoprecipitated and probed for co-precipitated endogenous cIAP1. MG132 was applied for the last 6 h of incubation. […] N/A, not analyzed. The asterisk denotes assessment in the yeast two-hybrid test. […] The indicated plasmids were co-transfected into HEK293T cells.

B1: SIVA2: short splice variant of SIVA, E3 ligase (NM—021709, SEQ ID NO:11); recombinant GST fusion in in-vitro tests (protein)
chain: MPKRSCPFADVAPLQLKVRVSQRELSRGVCAERYSQEVFDPSGVASIACSSCVRAVDGKAVCGQCERALCGQCVRTCWGCGSVACTLCGLVDCSDMYEKVLCTSCAMFET
modifications: left off: a dimerising Fc or GST; large carriers; small tags and cut ends
notes: recombinant GST fusion in in-vitro tests
With B1 the “binding of SIVA2 to TRAF2 in vitro” value [1] was “binds TRAF2 in vitro”, the “binding of SIVA2 to cIAP1” value [2] was “binds at its N-terminus to cIAP1” and the “ubiquitination of cIAP1” value [3] was “effectively ubiquitinated”.

B2: FLAG-SIVA2 (1-58) (other, not shown: small tags and cut ends)
chain: MPKRSCPFADVAPLQLKVRVSQRELSRGVCAERYSQEVFDPSGVASIACSSCVRAVDG
notes: also called SIVA N-terminus
B2: binds [4].

From patent publication US20110293593A1, “SIVA 2 STABILIZATION” (YEDA RESEARCH AND DEVELOPMENT CO., LTD., priority 2008, published 2011)
